The source of these data is publication PMC7570257.

For orientation: stoichiometry N means a count of units in the complex or per binding partner.

For the assay, the target named is PRMT1 catalytic core construct. Kind of assay: SEC. For orientation: Size exclusion chromatography separates by hydrodynamic size, large species first.

“PRMT1 catalytic core construct (domain or fragment)”: the stoichiometry N was 4.
